Laboratory results: patent US20250314643A1, “FLUORESCENT COMPLEXES COMPRISING TWO RHODAMINE DERIVATIVES AND A NUCLEIC ACID MOLECULE” (CENTRE NATIONAL DE LA RECHERCHE SCIENTIFIQUE, priority 2019, published 2025)

B1: o-Coral: light-up RNA aptamer, 4C10 derivative with 6-nucleotide long linker (nucleic acid)
chain: GGGAGACAGCUAGAGUACAGGAACCCCGCUUCGGCGGUGAUGGAGAGGCGCAAGGUUAACCGCCUCAGGUUCCGGUGACGGGGCCUCGCUUCGGCGAUGAUGGAGAGGCGCAAGGUUAACCGCCUCAGGUUCUGACACGAGCACAGUGUAC
modifications: fluorophore binding aptamers
notes: light-up RNA aptamer, 4C10 derivative with 6-nucleotide long linker
B2: 4C10: duplicated SRB-2 variant RNA aptamer displaying 6 point mutations (nucleic acid)
chain: AGAACCCCGCUUCGGCGGUGAUGGAGAGGCGCAAGGUUAACCGCCUCAGGUUCCNNNNNNNNNNNNNNNNNNNNNNNNNNNNNNNNNNNNNNNNNNNNNNNNNNNNNNNNNNNNGGGGCCUCGCUUCGGCGAUGAUGGAGAGGCGCAAGGUUAACCGCCUCAGGUUCU
modifications: fluorophore binding aptamers; (55)..(72) N represents A, U, G or C; (73)..(114) N represents A, U, G or C or is absent
notes: duplicated SRB-2 variant RNA aptamer displaying 6 point mutations
B3: SRB-2: parental RNA aptamer previously developed to interact with sulforhodamine B (nucleic acid)
chain: GGGAGACAGCUAGAGUACGGAACCUCGCUUCGGCGAUGAUGGACAGGUUCCGACACGAGCACAGUGUAC
modifications: listed as RNA, chemistry not given here

Legend:
[1] = Fluorescence Correlation Spectroscopy (FCS) analysis of the fluoromodules; assay type: physicochemical
[2] = Affinity measurements (Kd, fluorescence titration of Gemini-561 with RNA); assay type: binding; details: for Kd: 40 mM potassium phosphate pH 7.5, 100 mM KCl, 1 mM MgCl2, 0.05% Tween 20, 100 nM (SRB-2) or 25 nM (4C10) Gemini-561
Procedure: The Kd value can be obtained by measuring the fluorescence intensity of the fluorophore in aqueous medium with increasing amount of the said nucleic acid. The plot of the fluorescence intensity versus the concentration of the said nucleic acid will provide the Kd value after fitting with the proper equation (example: Hill equation).
The fluorescence was measured on microplate reader (ex/em 580/620 nm, SpectraMax iD3, Molecular Devices).

[3] = Fluorescence measurement on purified RNA (Gemini-561 activation capacity); assay type: biochemical; details: 500 nM RNA, 50 nM Gemini-561, ex/em 560/600 nm
Procedure: FIG. 6A represents Gemini-561 activation capacity of the parental SRB-2 and the evolved 4C10 variant. 500 nM of RNAs were incubated with 50 nM of Gemini-561 and the fluorescence was measured at À ex/em=560/600 nm.
FIG. 7A represents the fluorogenic capacity of SRB-2 and its evolved forms 4C10 and o-Coral. 500 nM of RNAS were incubated With 50 nM of Gemini-561 and the fluorescence was measured at X ex/em=560/600 nm. The values are the mean of 3 independent experiments, each measurement being shown as an open circle. The error bars correspond to ±1 standard deviation.
FIG. 10B represents Contribution of the dimerization and 736 the mutations to o-Coral functionality. SRB-2 aptamer was used as scaffold either in its monomeric 737 (m) or dimeric (d) form containing o-Coral linker. Indicated mutations were then implemented and the 738 different constructs tested as above.
FIG. 10C represents the identification of interacting regions. […]
1 μM purified RNA was heated for 1 min at 90° C. and cooled at 4° C. for 1 min. […] The mixture was then incubated for 10 min at 25° C. prior to measuring the fluorescence at 25° C. 011 a real-time thermocycler (ex/em 575/602 nm, MX 3005P, Agilent) or on microplate reader (ex/em 560/600 nm, SpectraMax iD3, Molecular Devices).

Molecule | Kd [2] [nM] | capacity to turn on Gemini-561 fluorescence [3] | other results
CN(C)c1ccc2c(-c3ccccc3C(=O)[O-])c3ccc(N(C)C)cc3[o+]c2c1 [Tetramethylrhodamine] | – | – | Size (hydrodynamic diameter of fluorescent specie) ([1]; fluorogen 200 nM, aptamer 1 μM): 1 nm; τcorr (correlation time) ([1]; fluorogen 200 nM, aptamer 1 μM): 0.032 ms; Brightness with respect to one molecule of the standard ([1]; standard tetramethylrhodamine for o-Coral (532 nm excitation), fluorescein for Broccoli and Corn): 1
B1 | – | – | fluorogenicity and affinity for Gemini-561 compared with 4C10 ([2]; 6-nucleotide linker derivative of 4C10): conserved both fluorogenicity and affinity
B2 | ~73 | an order of magnitude more fluorescent | –
B3 | ~441 | poor | –
